Results from the RNAGym collection of RNA variant scans (doi:10.1021/acssynbio.7b00057).

B1: Pistol ribozyme (parent)
chain: GGGUCGUUGUUCCAUAAUCGCGUGGAUAUGGCACGCAAGUUUCUACCGGGCACCGUAAAUGUCCGACUGGAGCCGUUCGGGCGGCUAUAAACAGACCUCAGGCCCGAAGCGUGGCGGCACCUGCCGCCGGUGGUAAAAAAGAUCGGAAGAGCACACGUCU

Variants of: B1
Assay: aptazyme ON/OFF ratio, guanine; higher = stronger switching; co-transcriptional cleavage with and without guanine

In order of falling “aptazyme ON/OFF ratio” value:
1. U7G U8G G9A  3.82
2. U7G U8G G9A U10C U11A  2.49
3. U7G U8C U10G U11C  2.14
4. U7G U8C U10G U11C C12G  2.08
5. U7G U8G G9A U10C U11G  1.89
6. U7G U8G G9A C12U  1.68
7. U7G U8G G9A C12G  1.59
8. U7G U8C U10G U11C C12A  1.57
9. U7G U8G G9A U10G C12G C13U  1.55
10. U7G U8G C12U C13U  1.5
11. U7G U8C U10G U11C C12U C13U  1.47
12. U7G U8C U10G U11G C12U  1.43
13. U7G U8G G9A U10A U11G C12G  1.43
14. U7G U8G G9A C12U C13U  1.41
15. U7G U8G G9A C12A  1.41
16. U7G U8C U10G U11C C12U C13A  1.4
17. U7G U8C U10G U11G C12G C13U  1.4
18. U7G U8G C12G C13A  1.4
19. U7G U8G C12U C13G  1.39
20. U7G U8G G9A U10G C13A  1.39
21. U7G U8C U10G U11C C12A C13A  1.38
22. U7G U8G C12G  1.38
23. U7G U8G G9A U10A U11A C12A C13U  1.38
24. U7G U8G G9A U10C U11G C12U C13U  1.38
25. U7G U8C U11A C12A  1.37
26. U7G U8G C12G C13U  1.37
27. U7G U8G G9A U10A C13U  1.37
28. U7G U8C U10G C12U C13U  1.36
29. U7G U8C U10G U11C C12G C13U  1.36
30. U7G U8C U10G C12U  1.36
31. U7G U8G C12G C13G  1.36
32. U7G U8G G9A U10A C12U C13U  1.35
33. U7G U8G G9A U10A U11G C12U C13U  1.35
34. U7G U8C U10G C12U C13A  1.34
35. U7G U8C U10G U11G C12U C13U  1.34
36. U7G U8C U10G U11C C12U  1.34
37. U7G U8G G9A U10C U11A C12A  1.34
38. U7G U8C U10G U11C C12A C13U  1.33
39. U7G U8C U10C U11C C12A C13G  1.33
40. U7G U8G G9A U10C C12G C13U  1.33
41. U7G U8C U10G C12A  1.33
42. U7G U8G G9A U10A U11A C12G C13U  1.33
43. U7G U8C U10G U11C C13A  1.33
44. U7G U8C U11C C13U  1.32
45. U7G U8C U10G  1.31
46. U7G U8C U11A C12U  1.31
47. U7G U8C U10C U11G C12U C13U  1.31
48. U7G U8C U10G U11G  1.31
49. U7G U8G C12U C13A  1.31
50. U7G U8C U11C C13A  1.3
51. U7G U8C U10G U11G C12U C13G  1.29
52. U7G U8C U10G U11G C12A C13U  1.29
53. U7G U8C U10C U11G C12A C13U  1.29
54. U7G U8C U10C U11C C12A  1.29
55. U7G U8C U10C U11G C12U C13A  1.29
56. U7G U8G G9A U10C C12U C13U  1.29
57. U7G U8C U10G U11C C12G C13A  1.28
58. U7G U8G G9A U10C U11G C13G  1.28
59. U7G U8G G9A U10A C13A  1.28
60. U7G U8G G9A C12U C13A  1.27
61. U7G U8C U10C U11C C12G  1.27
62. U7G U8C U10C U11C C12A C13A  1.27
63. U7G U8G G9A U10C U11G C13A  1.27
64. U7G U8G G9A U10C U11G C12U C13A  1.27
65. U7G U8C U10C U11G  1.27
66. U7G U8G G9A U10G C13U  1.27
67. U7G U8C U10G U11G C12U C13A  1.26
68. U7G U8G G9A U10C C12G C13A  1.26
69. U7G U8G C12A  1.25
70. U7G U8G G9A U10C U11A C12A C13U  1.25
71. U7G U8C U10G U11C C12U C13G  1.23
72. U7G U8C U10G C12U C13G  1.22
73. U7G U8G G9A C12U C13G  1.22
74. U7G U8C U11G C12U C13U  1.22
75. U7G U8C U10G U11G C12G  1.22
76. U7G U8C U10C U11G C12A C13G  1.22
77. U7G U8G G9A U10A U11G C12U  1.22
78. U7G U8G G9A U10A U11C C12G C13G  1.22
79. U7G U8G G9A U10A C12U C13A  1.22
80. U7G U8G G9A U10A C12G C13U  1.22
81. U7G U8G C12U  1.21
82. U7G U8C U10G U11A  1.21
83. U7G U8G G9A U10C U11A C12G  1.21
84. U7G U8C U11A C12U C13U  1.21
85. U7G U8C U10G C12A C13U  1.2
86. U7G U8G G9A U10C U11A C12A C13A  1.2
87. U7G U8C U10C U11C C12A C13U  1.2
88. U7G U8C U11A C12U C13A  1.2
89. U7G U8G G9A U10C U11G C13U  1.19
90. U7G U8C U10G U11C C13G  1.19
91. U7G U8G G9A U10A U11A C13U  1.18
92. U7G U8C U10G U11G C12A  1.18
93. U7G U8C U10G U11C C12G C13G  1.18
94. U7G U8G G9A U10C C12U C13G  1.18
95. U7G U8G G9A U10C U11A C12U  1.18
96. U7G U8C U10G U11G C12G C13A  1.18
97. U7G U8G G9A U10A C12G C13G  1.18
98. U7G U8G G9A U10A U11C C12A C13G  1.17
99. U7G U8C U10G U11C C12A C13G  1.17
100. U7G U8G G9A U10A U11C C12U C13G  1.17
101. U7G U8G G9A U10A C13G  1.17
102. U7G U8G G9A U10A U11A C13A  1.16
103. U7G U8C U10C U11G C12A C13A  1.16
104. U7G U8C U10C U11C C12U  1.16
105. U7G U8G G9A U10G C12G C13G  1.16
106. U7G U8G G9A U10C C12G C13G  1.16
107. U7G U8G G9A U10A U11G C13G  1.16
108. U7G U8C U10C U11G C12U C13G  1.16
109. U7G U8G G9A U10C U11G C12U C13G  1.16
110. U7G U8C U10C U11C C12G C13A  1.16
111. U7G U8G G9A U10C U11A C12A C13G  1.15
112. U7G U8G G9A U10A U11C C12U C13U  1.15
113. U7G U8G G9A U10A C12U C13G  1.15
114. U7G U8G G9A U10A U11G C12G C13G  1.15
115. U7G U8G G9A U10A U11A C12G C13A  1.15
116. U7G U8C U11G C12U C13A  1.14
117. U7G U8G G9A U10A U11A C13G  1.14
118. U7G U8G G9A U10C U11G C12G C13G  1.14
119. U7G U8G G9A U10A U11G C13U  1.14
120. U7G U8G G9A U10A U11G C12G C13A  1.14
121. U7G U8C U10C U11C  1.14
122. U7G U8C U10C U11C C12G C13U  1.14
123. U7G U8C U11A C12U C13G  1.14
124. U7G U8G G9A U10A U11C C12G C13U  1.13
125. U7G U8G G9A U10A U11C C12G C13A  1.13
126. U7G U8G G9A U10A U11G C12A C13A  1.13
127. U7G U8G G9A U10A U11G C12U C13A  1.13
128. U7G U8C U10G C12A C13A  1.12
129. U7G U8C U10G C12A C13G  1.12
130. U7G U8C U11A C12G  1.12
131. U7G U8C U10C U11A C12U C13A  1.12
132. U7G U8G G9A U10A U11G C12U C13G  1.12
133. U7G U8G G9A U10A U11A C12A C13A  1.11
134. U7G U8G G9A U10G C12G C13A  1.11
135. U7G U8G G9A U10C C12U C13A  1.11
136. U7G U8G G9A U10G C13G  1.11
137. U7G U8C U10G U11G C12A C13G  1.1
138. U7G U8G G9A U10C U11G C12G C13A  1.1
139. U7G U8G G9A U10A U11A C12G C13G  1.1
140. U7G U8G G9A U10A U11G C12A C13U  1.1
141. U7G U8G G9A U10A C12G C13A  1.1
142. U7G U8G G9A U10A U11C C12A C13U  1.09
143. U7G U8C U10G U11G C12A C13A  1.09
144. U7G U8G G9A U10A U11G C13A  1.09
145. U7G U8C U11G C12U C13G  1.08
146. U7G U8G G9A U10C U11G C12G C13U  1.08
147. U7G U8G G9A U10A U11C C12U C13A  1.08
148. U7G U8C U10C U11A C12U C13G  1.08
149. U7G U8C U10G U11G C12G C13G  1.08
150. U7G U8G G9A U10C U11C  1.08
151. U7G U8G G9A U10A U11C C13A  1.08
152. U7G U8G G9A U10G U11A  1.07
153. U7G U8C U11C C13G  1.07
154. U7G U8G G9A U10A U11A C12A C13G  1.07
155. U7G U8G G9A U10A U11G C12A  1.07
156. U7G U8G G9A U10G U11A C12A  1.07
157. U7G U8C U10C U11C C13U  1.07
158. U7G U8G G9A U10A U11C C12A C13A  1.06
159. U7G U8G G9A U10A U11G C12G C13U  1.06
160. U7G U8C U10C U11C C12G C13G  1.06
161. U7G U8G G9A U10A U11C C13G  1.06
162. U7G U8C U10G C12G  1.05
163. U7G U8G G9A U10A U11C C13U  1.05
164. U7G U8C U10C U11A C12U C13U  1.04
165. U7G U8C U10C U11C C13G  1.04
166. U7G U8C U10C U11C C13A  1.04
167. U7G U8G G9A U10A U11G C12A C13G  1.03
